# Data reported in IntAct's records for PubMed 29892012.
# B1: TBC1 domain family member 22B (Homo sapiens), Q9NU19 (parent)
# chain: MAAENSKQFWKRSAKLPGSIQPVYGAQHPPLDPRLTKNFIKERSKVNTVPLKNKKASSFHEFARNTSDAWDIGDDEEEDFSSPSFQTLNSKVALATAAQVLENHSKLRVKPERSQSTTSDVPANYKVIKSSSDAQLSRNSSDTCLRNPLHKQQSLPLRPIIPLVARISDQNASGAPPMTVREKTRLEKFRQLLSSQNTDLDELRKCSWPGVPREVRPITWRLLSGYLPANTERRKLTLQRKREEYFGFIEQYYDSRNEEHHQDTYRQIHIDIPRTNPLIPLFQQPLVQEIFERILFIWAIRHPASGYVQGINDLVTPFFVVFLSEYVEEDVENFDVTNLSQDMLRSIEADSFWCMSKLLDGIQDNYTFAQPGIQKKVKALEELVSRIDEQVHNHFRRYEVEYLQFAFRWMNNLLMRELPLRCTIRLWDTYQSEPEGFSHFHLYVCAAFLIKWRKEILDEEDFQGLLMLLQNLPTIHWGNEEIGLLLAEAYRLKYMFADAPNHYRR
# partner: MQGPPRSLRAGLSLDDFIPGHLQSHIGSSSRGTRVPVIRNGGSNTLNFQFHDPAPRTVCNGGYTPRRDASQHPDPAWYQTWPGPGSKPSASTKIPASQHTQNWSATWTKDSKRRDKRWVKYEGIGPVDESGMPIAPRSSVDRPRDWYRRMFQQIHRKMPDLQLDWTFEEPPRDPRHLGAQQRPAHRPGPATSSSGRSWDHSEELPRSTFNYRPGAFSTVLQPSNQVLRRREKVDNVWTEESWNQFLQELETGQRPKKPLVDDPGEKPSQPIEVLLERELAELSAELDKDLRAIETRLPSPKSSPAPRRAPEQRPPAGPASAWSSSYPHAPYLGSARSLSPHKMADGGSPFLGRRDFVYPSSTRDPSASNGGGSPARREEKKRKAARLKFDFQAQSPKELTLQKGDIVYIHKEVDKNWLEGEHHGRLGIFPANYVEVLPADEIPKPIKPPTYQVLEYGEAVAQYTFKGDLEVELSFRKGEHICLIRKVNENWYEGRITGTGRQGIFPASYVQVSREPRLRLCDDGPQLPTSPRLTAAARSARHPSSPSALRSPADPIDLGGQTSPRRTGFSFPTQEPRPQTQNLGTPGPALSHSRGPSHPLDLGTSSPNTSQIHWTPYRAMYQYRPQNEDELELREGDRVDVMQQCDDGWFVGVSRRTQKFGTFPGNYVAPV
# B2: E3 ubiquitin-protein ligase LNX (Homo sapiens), Q8TBB1 (parent)
# chain: MNQPESANDPEPLCAVCGQAHSLEENHFYSYPEEVDDDLICHICLQALLDPLDTPCGHTYCTLCLTNFLVEKDFCPMDRKPLVLQHCKKSSILVNKLLNKLLVTCPFREHCTQVLQRCDLEHHFQTSCKGASHYGLTKDRKRRSQDGCPDGCASLTATAPSPEVSAAATISLMTDEPGLDNPAYVSSAEDGQPAISPVDSGRSNRTRARPFERSTIRSRSFKKINRALSVLRRTKSGSAVANHADQGRENSENTTAPEVFPRLYHLIPDGEITSIKINRVDPSESLSIRLVGGSETPLVHIIIQHIYRDGVIARDGRLLPGDIILKVNGMDISNVPHNYAVRLLRQPCQVLWLTVMREQKFRSRNNGQAPDAYRPRDDSFHVILNKSSPEEQLGIKLVRKVDEPGVFIFNVLDGGVAYRHGQLEENDRVLAINGHDLRYGSPESAAHLIQASERRVHLVVSRQVRQRSPDIFQEAGWNSNGSWSPGPGERSNTPKPLHPTITCHEKVVNIQKDPGESLGMTVAGGASHREWDLPIYVISVEPGGVISRDGRIKTGDILLNVDGVELTEVSRSEAVALLKRTSSSIVLKALEVKEYEPQEDCSSPAALDSNHNMAPPSDWSPSWVMWLELPRCLYNCKDIVLRRNTAGSLGFCIVGGYEEYNGNKPFFIKSIVEGTPAYNDGRIRCGDILLAVNGRSTSGMIHACLARLLKELKGRITLTIVSWPGTFL
# partner: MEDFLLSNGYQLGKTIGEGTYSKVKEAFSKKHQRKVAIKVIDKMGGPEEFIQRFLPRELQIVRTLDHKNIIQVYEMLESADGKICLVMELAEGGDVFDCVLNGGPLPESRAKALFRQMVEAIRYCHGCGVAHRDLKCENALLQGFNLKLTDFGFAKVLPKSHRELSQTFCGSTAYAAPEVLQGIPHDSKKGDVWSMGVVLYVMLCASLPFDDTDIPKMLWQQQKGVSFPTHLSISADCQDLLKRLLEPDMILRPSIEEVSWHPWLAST
# B3: E3 ubiquitin-protein ligase LNX (Homo sapiens), Q8TBB1 (parent)
# chain: B2 chain
# partner: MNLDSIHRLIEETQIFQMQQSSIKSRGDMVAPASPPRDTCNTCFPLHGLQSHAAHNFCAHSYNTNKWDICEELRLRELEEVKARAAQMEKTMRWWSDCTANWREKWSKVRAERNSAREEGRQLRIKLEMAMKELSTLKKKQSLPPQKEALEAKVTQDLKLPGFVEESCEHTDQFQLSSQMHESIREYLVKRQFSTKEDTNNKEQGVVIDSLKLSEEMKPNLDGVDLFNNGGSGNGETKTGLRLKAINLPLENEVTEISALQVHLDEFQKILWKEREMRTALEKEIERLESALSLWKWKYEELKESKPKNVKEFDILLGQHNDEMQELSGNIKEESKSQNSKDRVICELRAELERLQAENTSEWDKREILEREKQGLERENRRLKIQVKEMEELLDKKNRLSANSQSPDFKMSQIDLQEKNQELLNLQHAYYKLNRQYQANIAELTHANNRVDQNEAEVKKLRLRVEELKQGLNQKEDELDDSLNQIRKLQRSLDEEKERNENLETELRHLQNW
# B4: E3 ubiquitin-protein ligase LNX (Homo sapiens), Q8TBB1 (parent)
# chain: B2 chain
# partner: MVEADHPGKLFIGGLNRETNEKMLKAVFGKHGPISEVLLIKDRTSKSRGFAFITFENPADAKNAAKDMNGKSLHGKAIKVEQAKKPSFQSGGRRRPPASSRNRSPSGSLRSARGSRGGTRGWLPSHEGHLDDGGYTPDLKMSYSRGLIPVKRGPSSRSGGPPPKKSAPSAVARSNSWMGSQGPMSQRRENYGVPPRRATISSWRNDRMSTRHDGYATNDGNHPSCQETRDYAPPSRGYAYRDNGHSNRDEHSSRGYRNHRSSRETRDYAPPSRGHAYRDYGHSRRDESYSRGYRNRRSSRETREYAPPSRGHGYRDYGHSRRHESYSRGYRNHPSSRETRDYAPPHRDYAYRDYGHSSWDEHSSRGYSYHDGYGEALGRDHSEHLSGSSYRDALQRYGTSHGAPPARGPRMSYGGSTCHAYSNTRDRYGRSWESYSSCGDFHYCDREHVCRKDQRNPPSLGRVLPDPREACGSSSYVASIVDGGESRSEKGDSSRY
# Variants of: B1
# Conditions: with vinex_human SORBS3, O60504
row,Variant,effect of a mutation on the interaction
1,A349T,disrupting interaction strength

# Variants of: B2
# Conditions: with tssk3_human TSSK3, Q96PN8
row,Variant,effect of a mutation on the interaction
1,E295K,disrupting interaction strength

# Variants of: B3
# Conditions: with CCDC102B
row,Variant,effect of a mutation on the interaction
1,E295K,disrupting interaction strength

# Variants of: B4
# Conditions: with rby1a_human RBMY1A1, P0DJD3
row,Variant,effect of a mutation on the interaction
1,E295K,disrupting interaction strength
